Ends that are not written are not given here.
Experiments:
C34 [1] = biological target: T1, C34 (HIV-1); test: CD spectroscopy of the N-peptide/C-peptide mixture in PBS
T1 construct: also called CHR-peptide C34; C-peptide C34

C34 [2] = biological target: T1, C34; test: CD thermal denaturation monitored at 222 nm

| Binder | binding result (C34 [1]) | Tm of the complex (C34 [2]) |
| --- | --- | --- |
| IEAQQHLLQLTVWGIKQLQARILAVERY (Residue numbers count on HIV-1 HXB2 gp160; also called N28 peptide; free N28 peptide) [N28] | no binding (tested: 10 µM) | – |
| N28Fd trimer (designed binder, also: trimer, It gives the full length as 55 residues; also called FdN28Fd1) IEAQQHLLQLTVWGIKQLQARILAVERYGYIPEAPRDGQAYVRKDGEWVLLSTFL | – | 62.2 ° C. |
